Changes are numbered by the printed parent chain. Names may count otherwise. “And” between values parts separate entries of the source, which are not always exact repeats. Identical values can stand only once.
Key:
Assay type in all cases: cell-based, S. cerevisiae
p1-encoded leu2 (Q180*) [1] = experiment: Large-scale p1 fluctuation tests of p1-encoded leu2 (Q180*), per-base substitution rate; conditions: for Mutation rate (s.p.b.): per-base substitution rate, p1-encoded leu2 (Q180*)
Text: All three TP-DNAP1 libraries were screened through small scale p1 fluctuation tests in a metastable S. cerevisiae strain, OR-Y24. OR-Y24 contains w.t. p1 and recombinant p1 that lacks w.t. TP-DNAP1, and instead, encodes a standardized fluorescence reporter of p1 copy number (Table 1), and a disabled version of the LEU2 selection marker (leu2 (Q180*)). As described previously (Ravikumar et al., 2014), leu2 (Q180*) contains a C→T mutation at base 538 in LEU2 at a site permissive to all single point mutants that generate missense mutations. Reversion to functional LEU2 can be detected on medium lacking leucine.
Large-scale fluctuation tests of p1-encoded leu2 (Q180*) were performed to precisely determine per-base substitution rates for individually cloned or isolated TP-DNAP1 variants. Large-scale p1 fluctuation tests are performed similarly to small-scale p1 fluctuation tests, with several modifications. First, large-scale p1 fluctuation tests were typically performed with 36-48 replicates. For highly error-prone TP-DNAP1s obtained from later rounds of screening, fewer replicates (3-16) were used, which is sufficient for similar precision (Foster et al., 2006). Second, p1 copy number was determined by the flow cytometry method, described below. Third, cell titers were measured for each fluctuation test to estimate the average number of cells per culture. Cell resuspensions were diluted and plated on solid SC-UH medium, and colony counts were determined after incubation at 30° C. for 2-3 days. Alternatively, cell resuspensions were diluted and subject to an event-count measurement via flow cytometry. Fourth, inoculums of highly error-prone TP-DNAP 1 s occasionally contained pre-existing mutants, despite the 1:10,000 dilution, so mutant frequencies were estimated by plating pre-cultures on solid SC-UHLW, pH 5.8 medium. Plates were incubated for 2-3 days, in parallel with cultures grown for fluctuation tests. Pre-culture mutant titers were counted to estimate the number of replicates in the fluctuation test expected to contain pre-existing mutants (n). Revertants were counted from all replicates of the fluctuation tests, counts were sorted, and n replicates with the highest counts were omitted from calculations.
To calculate per-base substitution rates, fluctuation data were analyzed by the maximum likelihood method, implemented using newton.LD.plating in rSalvador 1.7 (Zheng, 2017). Phenotypic mutation rates were calculated by normalizing to the average number of cells per culture. Phenotypic mutation rates were divided by the measured p1 copy number and by the number of ways leu2 (Q180*) can revert to LEU2 (2.33 for the ochre codon) to yield per-base substitution rates. 95% confidence intervals were similarly scaled by these factors. All data related to large-scale p1 fluctuation tests are fully described in Table 2.

p1 = p1 copy number by p1-encoded mKate2 fluorescence; conditions: sustained by TP-DNAP1 variant
Outline: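 p1 copy number came from mKate2 fluorescence of saturated OR-Y24 cultures (triplicates, regrown from 1:10,000), read by flow cytometry and converted through a linear curve calibrated by qPCR (LEU2 against genomic LEU3). For small-scale tests, OD600-normalized plate-reader fluorescence (588/633 nm) was scaled to a w.t. TP-DNAP1 control.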

genomic URA3 gene = experiment: Fluctuation tests of the genomic URA3 gene in the presence of TP-DNAP1 variants; conditions: URA3 locus, strain harbouring p1 and the TP-DNAP1 variant
Protocol: Fluctuation tests of the genomic URA3 gene were performed to determine genomic per-base substitution rates, as previously described (Ravikumar et al., 2014). Fluctuation data were analyzed by the maximum likelihood method, as described for large-scale p1 fluctuation tests. Phenotypic mutation rates were divided by the target size for loss of function of URA3 via base pair substitution (Lang et al., 2008), to yield per-base substitution rates. 95% confidence intervals were similarly scaled by these factors. All data related to genomic URA3 fluctuation tests are fully described in Table 5.

p1-encoded leu2 (Q180*) [2] = experiment: qPCR measurement of p1-encoded leu2 (Q180*) copy number; conditions: qPCR-determined p1 copy number, OR-Y24 strains
Protocol: A calibration curve was established to correlate p1 copy number, determined via quantitative PCR (qPCR), with fluorescence of p1-encoded mKate2 (Table 1). Five TP-DNAP1 variants representing a wide range of copy numbers were transformed into ORY24 and passaged until w.t. p1 was displaced. The five OR-Y24 strains were grown to saturation, diluted 1:10,000 to mimic p1 fluctuation tests, and grown in triplicate 100 μL cultures and duplicate 40 mL cultures. 100 μL saturated cultures were subject to fluorescence measurement of mKate2 (ex/em=561 nm/620 nm, bandwidth=15 nm) on a flow cytometer (Invitrogen Attune NxT). Whole-cell DNA extracts were prepared from 40 mL cultures and used as templates for qPCR measurement of p1-encoded leu2 (Q180*), as described previously (Ravikumar et al., 2014). p1-encoded LEU2 was PCR amplified with qPCR-Leu2F and qPCR Leu2R; and genomic LEU3 was PCR amplified with qPCR-Leu3F and qPCR-Leu3R using SyBR Green (Fisher Scientific) master mix.

B1: TP-DNAP1-4-1: TP-DNAP1 variant (V574F, I777K, L900S), encoded by SEQ ID NO:10 (protein, listed as Kluyveromyces lactis)
chain: MDYKDKALNDLRNVYADFDSLPLDFRQILIKDRATLLQKEDVEKKILERQEDAKKYAEYLKQSEIPERISLPNIKRHKGVSISFEETSEDMVLEPRPFIFDGLNIRCFRRETIFSLKNKILNMVKESSSFKNVSRQSVSFMYFKIFNKGKVIASTKSVNIYEDKIDERLEDLCNNFDDVLKKIIDVTYGYESLFVSETYSYVIFYAKSIYFPQPRCVNNWGNNIPNILTFDSFKLFTANKNNVSCIKQCSRFLWQKDFNTLEEMIEYKNGNICIVTPQLHINDVRDIKSFNDIRLYSESPIKTFSVIDNTITYLFYFKEHLGVIFNITKSRHDRRVTKFSPLSKFSDVKNITVCFDIESYFDPEKESNQVNIPFICCASIIYNKVIGNIVDFEGRDCVAQMIEYVVDICGELNISSVELIAHNGGGYDFHYILSSMYNPAAIKNILIRNNSFISFNFAHDGVKFSVKDSYSFLLCSLANASKAFLNEETFKKTDFPHHDLKTADDLYKVYKEWSSVNTEINHVVEKEKLLITSEHIVNFTKNDKSKTLIEWSKDYCRNDVLVLSKVWLEFKNAFEDIFNCELVDQTMTLAGLSYKLFQANMPFDVELRHPNKEDYFNMREALIGGRCISVNGIYKDVLCLDVKSLYPASMAFYDQPYGSFKRVSSRPKDELGIYYVRVTPNRNNKSNFFPIRSHNKITYNNFEESTYIAWYTNVDIDIGLSEGHNIEYIPFDSYGNIGYSWSKKGKIFEKYIKDVLYKLKIKYEKQNNKVKRNVIKKIMNSLWGKFAQKWVNFEYFIKSEDDIDFESEEAYKIWDTDFMLIKKIKESTYSSKPIQNGVFTLSWARYHMKSIWDAGAKEGAECIYSDTDSIFVHKEHFKKNAKFMLNGLKVPIIGSEVGQSELECEFDKLLCAGKKQYMGFYTYFQDGKPCIKEKKRFKGIPSNYIIPELYAHLLSGADKEAKIQFLKFRREWGSVKGYIENKTVKAT
p1 mutation rate (p1-encoded leu2 (Q180*) [1]; p1 replication by TP-DNAP1 variant): ~7×10^−6 s.p.b.
Mutation rate (s.p.b.) (p1-encoded leu2 (Q180*) [1]; measurements taken after 90 generations, I777K, L900S): 7.58 × 10^−6 s.p.b. and 6.87 × 10^−6 s.p.b. and 7.71 × 10^−6 s.p.b.
p1 copy number (p1): ~5
Yeast genomic substitution mutation rate (genomic URA3 gene): 1.76 × 10^−10 s.p.b.

B2: I777K: TP-DNAP1 variant, encoded by SEQ ID NO:3 (protein)
chain: B1 chain with F574V, S900L
Average leu2 (Q180*) copy number per cell (p1-encoded leu2 (Q180*) [2]): 45.8 and 54.1

B3: Y431H, L640Y, I777K, W814N: TP-DNAP1 variant, encoded by SEQ ID NO:8 (protein, listed as Kluyveromyces lactis)
chain: B1 chain with Y431H, F574V, L640Y, W814N, S900L
Mutation rate (s.p.b.) (p1-encoded leu2 (Q180*) [1]; measurements taken after 90 generations): 2.33 × 10^−6 s.p.b. and 4.29 × 10^−6 s.p.b. and 3.24 × 10^−6 s.p.b.
Yeast genomic substitution mutation rate (genomic URA3 gene): 2.68 × 10^−10 s.p.b.

B4: L474W, L640Y, I777K, W814N: TP-DNAP1 variant, encoded by SEQ ID NO:9 (protein, listed as Kluyveromyces lactis)
chain: B1 chain with L474W, F574V, L640Y, W814N, S900L
Mutation rate (s.p.b.) (p1-encoded leu2 (Q180*) [1]; large-scale fluctuation test): 4.03 × 10^−6 s.p.b. and 2.74 × 10^−6 s.p.b.
Average leu2 (Q180*) copy number per cell (p1-encoded leu2 (Q180*) [2]; L640Y, I777K): 8.63 and 11.1
Yeast genomic substitution mutation rate (genomic URA3 gene): 2.17 × 10^−10 s.p.b.

— patent US20230242902A1, “A HIGHLY ERROR-PRONE […] R[…] FOR TARGETED CONTINUOUS EVOLUTION IN VIVO” (The Regents of the University of California, priority 2017, published 2023)
